Substitutions are numbered along the chain they refer to.
Molecular target: T1, human Rh(D) antigen (human, UniProt Q02161 2-417)
T1 construct: whole, on cells; also called wt; wild-type Rh(D) on Rh(D)-positive RBCs
T1 sequence (looked up): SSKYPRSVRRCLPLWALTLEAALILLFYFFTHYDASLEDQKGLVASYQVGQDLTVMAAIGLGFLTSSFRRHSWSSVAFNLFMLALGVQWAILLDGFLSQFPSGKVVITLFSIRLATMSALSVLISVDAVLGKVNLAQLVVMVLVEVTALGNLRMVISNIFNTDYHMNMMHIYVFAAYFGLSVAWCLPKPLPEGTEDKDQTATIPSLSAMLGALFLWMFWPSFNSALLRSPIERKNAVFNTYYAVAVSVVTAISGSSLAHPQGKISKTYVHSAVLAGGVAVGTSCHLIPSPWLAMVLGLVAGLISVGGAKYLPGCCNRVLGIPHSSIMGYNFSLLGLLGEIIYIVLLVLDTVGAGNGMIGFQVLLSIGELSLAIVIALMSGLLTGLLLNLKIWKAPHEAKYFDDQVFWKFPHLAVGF
Assay: Fab/phage agglutination (anti-M13)
Experimental: Following a one-hour incubation at 37° C., the RBCs were washed 3 times with 2 ml of cold PBS to remove unbound antibody. The resulting RBC pellets were resuspended in 100 μl of a 10 μg/ml solution of sheep anti-M13 antibody (5 Prime-3 Prime, Boulder, Colo.) for Fab/phage experiments or goat anti-human κ or λ light chain antibody (Tago, Burlingame, Calif.) for γ₁κ or γ₁λ soluble Fab experiments, respectively. The RBC suspensions were transferred to the round-bottomed wells of a 96-well microplate and left undisturbed for […]. Negative reactions show sharp ˜2 millimeter diameter RBC spots whereas the RBCs in agglutinated wells form a thin carpet coating the entire floor of the well (Siegel et al., 1997, J. Immunol. Meth. 206:73). Agglutination titers for recombinant antibodies were determined by performing serial 2-fold dilutions in 1% BSA/PBS.
Fifty-six randomly chosen colonies were selected, and monoclonal Fab/phage preparations were separately produced from each of these individual colonies, using the methods described herein in Example 1. Rh(D) specificity was determined by indirect agglutination using anti-M13 antibody, as described herein in Examples 1 and 2.

B1: SH13 (Fab, V domains shown)
VH: EVQLLESGGGVVQPGRSLRLSCAASGFTFSSYGMHWVRQAPGKGLEWVAVVYYDGSNKHYSDSVKGRFTISRDNSKNTLYLQMDSLRAEDTAVYYCARERNFRSGYSRYYYGMDVWGPGTTVTVSS
VL: not shown
notes: Fab/phage
binding result: binds

B2: SH56 (Fab, V domains shown)
VH: B1 VH with S71F
VL: AELTQSPSSLSASVGDRVTITCRASQSISRYLNWYQQKPGKAPKLLIYAASSLQSGVPSRFSGSGSGTDFALTISSLLPEDFATYYCQQGYSTPPYSFGQGTKLEIKR
notes: Fab/phage
binding result: binds

B3: SH17 (Fab, V domains shown)
VH: EVQLLESGGGLVQPGGSLRLSCGASGIPFVSSWMAWVRQAPGKGLEWVANIKQDGSKKNYVDSVEGRFTISRDNAKNSLYLQMDSLRAEDTRIYYCARDSLTCFDYWGQGALVTVSS
VL: AELQDPVVSVALGQTVRITCQGDGLRSYYASWYQQKPGQAPKLVMYGRNNRPSGIPGRFSGSSSGQTAALTITGTQAEDEADYYCQSRATSGNPVVFGGGTKLTVL
notes: Fab/phage
binding result: binds
